The values below come from US20170166649A1 (MAX DELBR CK CENTRUM F R MOLEKULARE MEDIZIN IN DER …, published 2017).

Test [1] concerns the target T1, human CD269 (BCMA) on human multiple myeloma cells (MM.1S, RPMI-8226) (human, UniProt Q02223 1-184).
T1 construct: whole, on cells; also called BCMA-positive MM.1S cells; CD269-positive MM.1S cells
T1 sequence (looked up): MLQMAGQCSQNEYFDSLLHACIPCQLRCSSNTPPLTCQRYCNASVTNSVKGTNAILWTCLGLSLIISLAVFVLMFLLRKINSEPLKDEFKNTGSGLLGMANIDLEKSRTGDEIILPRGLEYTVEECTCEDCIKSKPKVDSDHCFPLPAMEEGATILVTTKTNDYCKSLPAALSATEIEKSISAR
As to the kind of experiment: flow cytometry on MM.1S cells. Background: A flow cytometer gives signals particle by particle.

Test [2] addresses T2, extracellular domain of human CD269 (BCMA, TNFRSF17) (human, UniProt Q02223 4-54).
T2 construct: also called hBCMA; human BCMA
T2 sequence: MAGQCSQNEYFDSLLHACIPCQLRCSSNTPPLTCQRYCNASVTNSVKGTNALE
Put plainly: SPR; mean Kd of FIG. 1c, initial SPR characterisation (not the n = 3 series of Table 6).

In test [3] the target is T2, extracellular domain of human CD269 …. As to the kind of experiment: SPR, value printed beside the trace for 10.0 nM BCMA; neither a quantity name nor a unit is printed, and the five values average to the mean Kd of 54 pM of paragraph 196. (In general: In SPR one partner is held on a chip, and binding of the other changes the refractive index at the surface.)
Test [4] deals with T3, extracellular domain of cynomolgous BCMA (cynomolgus, UniProt A0A2K5UD97 1-53).
T3 construct: extracellular domain; also called cyBCMA; cynoBCMA
Put plainly: SPR, IgG immobilised, cynomolgus BCMA in mobile phase (n = 2). The procedure:
(§1) FIG. 12: SPR raw data: Binding affinities of the chimeric J22.9-xi and humanized variants to human (A) and cynomolgus (B) BCMA was measured by Surface Plasmon Resonance (SPR) Spectrometry. IgGs were immobilized via amine chemistry to a Proteon GLH sensor chip and binding measured with BCMA in the mobile phase. The order of raw data traces in the graph corresponds to the order to samples listed in the legend of the figure.
(§2) SPR was performed on a ProteonXPR36 using phosphate buffered saline supplemented with 0.005% Tween-20 (PBST). Whole IgG at a concentration of 15 ug/ml was immobilized to a Proteon GLH sensor chip using standard amine chemistry according to the manufacturer's instructions. For binding experiments, human or cynomolgus BCMA in PBST was used as the mobile phase.

The target of test [5] is T2, extracellular domain of human CD269 …. Put plainly: SPR, value printed beside the trace for 90.0 nM BCMA; neither a quantity name nor a unit is printed, and the five values average to the mean Kd of 54 pM of paragraph 196.
Test [6] addresses T3, extracellular domain of cynomolgous BCMA. As to the kind of experiment: ELISA on plates coated with cynomolgus BCMA (1 ug/ml), % of max. The procedure:
(§3) ELISA was carried out as described herein using BCMA-coated microtiter plates (1 microg/ml).
(§4) Microtiter plates were coated with 1 μg/ml of the extracellular domain of human or cynomolgous BCMA (hBCMA or cyBCMA, respectively). Coated BCMA was detected with serial dilution of J22.9-xi, J22.9-H, J22.9-ISY and J22.9-FSY ranging from 0.26 pM to 500 nM. Binding of antibodies to the coated BCMA was detected with horseradish peroxidase (HRP)-conjugated goat anti-human secondary antibody (Jackson ImmunoResearch, 109-035-098, dilution 1:5,000).
In general terms: An ELISA detects its analyte on a solid surface through an enzyme-linked reagent.

In test [7] the target is T2, extracellular domain of human CD269 …. Put plainly: SPR, value printed beside the trace for 1.1 nM BCMA; neither a quantity name nor a unit is printed, and the five values average to the mean Kd of 54 pM of paragraph 196.
For test [8] the target is unchanged. As to the kind of experiment: SPR, value printed beside the trace for 30.0 nM BCMA; neither a quantity name nor a unit is printed, and the five values average to the mean Kd of 54 pM of paragraph 196.
The target is the same in test [9]. As to the kind of experiment: SPR, IgG immobilised, human BCMA in mobile phase (n = 3). The procedure:
as §1, §2

Test [10] shares this target. Put plainly: SPR, value printed beside the trace for 3.3 nM BCMA; neither a quantity name nor a unit is printed, and the five values average to the mean Kd of 54 pM of paragraph 196.
Test [11] shares this target. Put plainly: ELISA on plates coated with human BCMA (1 ug/ml), % of max. Here is the method: as §3, §4
Test [12] has the same target. Put plainly: complex isolated by size exclusion chromatography and crystallised. Here is the method: (Fab)₂ fragments were generated from full length J22.9-xi IgG by incubation with pepsin. J22.9-xi was passed over a PD-10 buffer exchange column into 50 mM sodium acetate, pH 3.5 and pepsin added at 30 μg per milligram J22.9-xi. Incubation at 37° C. for 2.5 hours was sufficient to completely digest the fragment crystallizable (Fc) region and pepsin was inactivated by exchange over a PD-10 column into PBS (pH 7.2). The reduction of the (Fab)₂ fragments to individual Fabs was accomplished in PBS by addition of 2-Mercaptoethylamine (50 mM) in the presence of 5 mM ethylenediaminetetraacetic acid (EDTA). After incubation for 90 minutes at 37° C., the reduced cysteines were blocked by alkylation with 500 μM iodoacetamide for 30 minutes followed by buffer exchange into fresh PBS. The Fab fragments were combined with 1.5 molar equivalents of purified BCMA and the complexes isolated by size exclusion chromatography on a Superdex 75 16/60 column.
Concentrated complexes were supplemented with 0.5 molar equivalents of pure BCMA to ensure saturation and were subjected to crystallization screening. Initial Fab:BCMA crystallization conditions were identified from commercial screens (Qiagen) in 96-well sitting drop format plates using a Gryphon pipetting robot (200 nl drops) and optimized in 24 well plates in hanging drops (2-3 ul). […]

Test [13] shares this target. Put plainly: ELISA of hybridoma J22.9 supernatant on BCMA-coated microtiter plates at the given days of culture.

T3 sequence (A0A2K5UD97 entry or part of it): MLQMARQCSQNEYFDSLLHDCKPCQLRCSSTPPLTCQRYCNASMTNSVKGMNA

B1: J22.9-xi-N-glycan (deglycosylated J22.9-xi) (antibody, human IgG1, V domains shown)
VH: QVQLQQSGGGLVQPGGSLKLSCAASGIDFSRYWMSWVRRAPGKGLEWIGEINPDSSTINYAPSLKDKFIISRDNAKNTLYLQMSKVRSEDTALYYCASLYYDYGDAMDYWGQGTSVTVSS
VL: DIVMTQSQRFMTTSVGDRVSVTCKASQSVDSNVAWYQQKPRQSPKALIFSASLRFSGVPARFTGSGSGTDFTLTISNLQSEDLAEYFCQQYNNYPLTFGAGTKLELKR
modifications: N-linked oligosaccharide chains at Asn297 of the heavy chain removed with PNGase F
notes: also called J22.9-xi without N-glycans
As for B1, the binding result in [1] was “binds”.

B2: chimeric antibody J22.9-xi (antibody, V domains shown)
VH: QVQLQQSGGGLVQPGGSLKLSCAASGIDFSRYWMSWVRRAPGKGLEWIGEINPDSSTINYAPSLKDKFIISRDNAKNTLYLQMSKVRSEDTALYYCASLYYDYGDAMDYWGQGTSVTVSS
VL: DIVMTQSQRFMTTSVGDRVSVTCKASQSVDSNVAWYQQKPRQSPKALIFSASLRFSGVPARFTGSGSGTDFTLTISNLQSEDLAEYFCQQYNNYPLTFGAGTKLELKR
notes: Full length IgG made in 293-6E cells
Regarding B2, the Kd – broadly, the free concentration of one partner at which half of the binding sites on the other are occupied at equilibrium, for simple one-to-one binding – in test [2] worked out at 54 pM; in [3], 55.5 pM; in test [4] it was 2700 pM; in test [5], 88 pM; in [7], 21 pM; in test [8], 69.5 pM. Moreover, the equilibrium dissociation constant (Kd) is 280 pM in [9] and 36.2 pM in test [10]. For the same molecule, the “EC50 (read off the curve)” value in [6] and in test [11] was around 200 pM throughout.

B3: Fab fragment prepared from J22.9-xi (Fab, V domains shown)
VH: QVQLQQSGGGLVQPGGSLKLSCAASGIDFSRYWMSWVRRAPGKGLEWIGEINPDSSTINYAPSLKDKFIISRDNAKNTLYLQMSKVRSEDTALYYCASLYYDYGDAMDYWGQGTSVTVSS
VL: DIVMTQSQRFMTTSVGDRVSVTCKASQSVDSNVAWYQQKPRQSPKALIFSASLRFSGVPARFTGSGSGTDFTLTISNLQSEDLAEYFCQQYNNYPLTFGAGTKLELKR
modifications: reduced cysteines blocked by alkylation with iodoacetamide
notes: also called J22.9-xi Fab
Take B3: in test [12], the binding result is “binds”.

B4: antibody in the supernatant of mouse hybridoma J22.9 (antibody, V domains shown)
VH: QVQLQQSGGGLVQPGGSLKLSCAASGIDFSRYWMSWVRRAPGKGLEWIGEINPDSSTINYAPSLKDKFIISRDNAKNTLYLQMSKVRSEDTALYYCASLYYDYGDAMDYWGQGTSVTVSS
VL: DIVMTQSQRFMTTSVGDRVSVTCKASQSVDSNVAWYQQKPRQSPKALIFSASLRFSGVPARFTGSGSGTDFTLTISNLQSEDLAEYFCQQYNNYPLTFGAGTKLELKR
notes: Mouse antibody; also called hybridoma J22.9 supernatant
Take B4: the binding result in [13] is on record as “binds”.
